Results taken from PMC7721647, “The Human RNA Helicase DDX21 Presents a Dimerization Interface Necessary for Helicase Activity” (iScience, 2020).

How the values were obtained:
DDX21Fl [1] = target: T1, DDX21Fl (human, UniProt Q9NR30 1-783); assay: fluorescence polarization; no ATP; 50 mM KCl; FP: 50 mM Tris pH 7.5, 50 mM KCl, 5 mM MgCl2, no ATP; Hill-slope fit; temperature not given in the material; details: protein: recombinant; tags: N-terminal Trx-His6, cut with thrombin; chain copies: 2; label: 5'-FAM; G4
T1 sequence: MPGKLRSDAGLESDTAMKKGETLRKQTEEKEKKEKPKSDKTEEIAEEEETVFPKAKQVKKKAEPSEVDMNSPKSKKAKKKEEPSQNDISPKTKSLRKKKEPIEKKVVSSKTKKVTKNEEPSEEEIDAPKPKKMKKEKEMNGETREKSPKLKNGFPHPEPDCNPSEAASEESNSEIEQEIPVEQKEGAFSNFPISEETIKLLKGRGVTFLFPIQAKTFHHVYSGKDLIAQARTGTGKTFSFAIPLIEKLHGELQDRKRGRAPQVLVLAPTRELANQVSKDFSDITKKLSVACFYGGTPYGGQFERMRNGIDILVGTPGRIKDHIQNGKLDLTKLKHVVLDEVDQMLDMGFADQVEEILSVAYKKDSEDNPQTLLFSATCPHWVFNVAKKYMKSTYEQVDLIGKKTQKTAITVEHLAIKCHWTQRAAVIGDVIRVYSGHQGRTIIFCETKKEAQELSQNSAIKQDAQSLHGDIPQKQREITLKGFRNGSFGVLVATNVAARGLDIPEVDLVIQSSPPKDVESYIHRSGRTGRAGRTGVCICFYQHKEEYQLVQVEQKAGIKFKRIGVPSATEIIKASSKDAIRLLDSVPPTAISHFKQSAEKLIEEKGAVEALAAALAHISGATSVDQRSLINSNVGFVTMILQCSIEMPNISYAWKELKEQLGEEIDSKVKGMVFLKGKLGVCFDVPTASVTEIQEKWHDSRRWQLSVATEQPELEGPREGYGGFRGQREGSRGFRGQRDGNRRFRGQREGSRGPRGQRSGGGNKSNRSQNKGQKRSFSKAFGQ

DDX21Core-DD [2] = target: T2, DDX21Core-DD (human, UniProt Q9NR30 186-620); assay: fluorescence polarization; 50 mM KCl; FP: 50 mM Tris pH 7.5, 50 mM KCl, 5 mM MgCl2, no ATP; Hill-slope fit; temperature not given in the material; details: protein: recombinant; tags: C-terminal His6, uncleavable; chain copies: 2; label: 5'-FAM; G4
T2 sequence: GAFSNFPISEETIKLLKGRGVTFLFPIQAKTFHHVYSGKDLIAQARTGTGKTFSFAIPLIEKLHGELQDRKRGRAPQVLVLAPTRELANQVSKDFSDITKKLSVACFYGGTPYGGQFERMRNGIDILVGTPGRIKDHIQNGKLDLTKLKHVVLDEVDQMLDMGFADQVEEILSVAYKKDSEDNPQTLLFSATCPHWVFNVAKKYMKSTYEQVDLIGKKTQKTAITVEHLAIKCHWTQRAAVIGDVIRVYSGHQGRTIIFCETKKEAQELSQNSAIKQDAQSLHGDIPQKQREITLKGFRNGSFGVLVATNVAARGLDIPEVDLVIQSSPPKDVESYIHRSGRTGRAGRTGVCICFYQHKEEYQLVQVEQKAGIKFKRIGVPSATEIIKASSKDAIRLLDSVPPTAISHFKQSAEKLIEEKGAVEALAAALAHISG

DDX21Fl monomer [3] = target: T3, DDX21Fl monomer (human, UniProt Q9NR30 1-783, L611R;A612R;A613R;A614R;L615R;A616R); assay: as above; details: protein: recombinant; label: 5'-FAM; G4
T3 sequence: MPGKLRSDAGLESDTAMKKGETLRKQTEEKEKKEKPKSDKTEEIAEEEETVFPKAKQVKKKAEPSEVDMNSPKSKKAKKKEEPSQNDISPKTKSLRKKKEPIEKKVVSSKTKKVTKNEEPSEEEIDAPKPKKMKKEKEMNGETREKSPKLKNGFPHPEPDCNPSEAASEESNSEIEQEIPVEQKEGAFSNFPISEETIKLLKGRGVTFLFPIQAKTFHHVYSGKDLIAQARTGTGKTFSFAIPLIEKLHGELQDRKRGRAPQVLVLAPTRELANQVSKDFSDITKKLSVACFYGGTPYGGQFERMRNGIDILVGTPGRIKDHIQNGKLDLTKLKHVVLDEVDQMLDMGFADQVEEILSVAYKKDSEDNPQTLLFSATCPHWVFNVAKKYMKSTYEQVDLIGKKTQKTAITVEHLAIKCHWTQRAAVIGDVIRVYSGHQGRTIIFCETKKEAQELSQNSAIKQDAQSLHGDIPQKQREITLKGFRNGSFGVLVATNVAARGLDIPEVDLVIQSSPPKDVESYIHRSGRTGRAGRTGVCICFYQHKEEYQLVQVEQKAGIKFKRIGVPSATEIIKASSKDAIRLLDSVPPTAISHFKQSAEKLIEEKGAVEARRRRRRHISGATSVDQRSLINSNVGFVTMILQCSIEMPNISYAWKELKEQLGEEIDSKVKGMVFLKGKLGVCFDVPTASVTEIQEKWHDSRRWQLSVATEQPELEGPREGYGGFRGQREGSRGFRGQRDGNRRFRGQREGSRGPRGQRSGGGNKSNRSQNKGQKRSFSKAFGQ

DDX21Fl [4] = target: T1, DDX21Fl; assay: fluorescence polarization; no ATP; FP: 50 mM Tris pH 7.5, 50 mM KCl, 5 mM MgCl2, no ATP; Hill-slope fit; temperature not given in the material; details: protein: recombinant, tags: N-terminal Trx-His6, cut with thrombin, chain copies: 2
DDX21Core-DD [5] = target: T2, DDX21Core-DD; assay: fluorescence polarization; FP: 50 mM Tris pH 7.5, 50 mM KCl, 5 mM MgCl2, no ATP; Hill-slope fit; temperature not given in the material; details: protein: recombinant, tags: C-terminal His6, uncleavable, chain copies: 2
DDX21Fl monomer [6] = target: T3, DDX21Fl monomer; assay: as above; details: protein: recombinant
[7] = label: 5'-FAM on 15-mer, 3' overhang 15 nt

B1: Q2 RNA G-quadruplex (structured_RNA)
RNA: GUUGGGGCGGGCGUUGGGUUUGGGGGGACG
Work on B1 yielded a Kd (DDX21Fl [1]) of 2.6 ± 0.1 nM, a Kd (DDX21Core-DD [2]) of 23.1 ± 3.2 nM and a Kd (DDX21Fl monomer [3]) of 9.8 ± 0.9 nM.

B2: 15-mer ssRNA (ssRNA)
RNA: GUUUCGGAUCGACGC
Work on B2 yielded a Kd (DDX21Fl [4]; label: 5'-FAM, single strand) of 30.7 ± 2.8 nM, a Kd (DDX21Core-DD [5]; label: 5'-FAM, single strand) of 330 ± 19.1 nM and a Kd (DDX21Fl monomer [6]; label: 5'-FAM, single strand) of 29.9 ± 2.7 nM.

B3: dsRNA 15/30mer 3' overhang (dsRNA)
RNA 1: GUUUCGGAUCGACGC
RNA 2: GCGUCGAUCCGAAACUAUACUUAAUUUUAA
B3 was tested, and the Kd (DDX21Fl [4]; [7]) was 10.2 ± 0.4 nM, the Kd (DDX21Core-DD [5]; [7]) was 143 ± 6.1 nM and the Kd (DDX21Fl monomer [6]; [7]) was 13.9 ± 2.5 nM.
